Test results: patent publication US20200165330A1 (ORDER MADE MEDICAL RESEARCH, published 2020)
Values belong to the binder of their own block, whether it stands above or below them.

Columns and labels:
human VEGF121 = target: T1, human VEGF121 (human, UniProt P15692 207-321); assay: ELISA, human VEGF121 coated at 20 ng/well, antibody serially diluted from 1 ug/ml, peroxidase anti-human Ig, absorbance 450 nm
T1 sequence: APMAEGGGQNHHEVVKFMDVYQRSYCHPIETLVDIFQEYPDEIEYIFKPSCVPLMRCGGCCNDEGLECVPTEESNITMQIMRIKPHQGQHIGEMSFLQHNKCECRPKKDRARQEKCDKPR
Method: (§1) Next, after 3 times of washing with 300 μL of 0.02% Tween 20-containing PBS (−) (hereafter, denoted as “PBS-T”), 300 μL of 3% skim milk-containing PBS (−) was dispensed to each well, followed by blocking at 37° C. for 1 hour. […] After washing similarly, TMB Single Solution was added for color development at room temperature. After the reaction was stopped with 1 N sulfuric acid, absorbance at 450 nm was measured using a plate reader (Molecular Devices).

[1] = target: T2, Human recombinant VEGF165 (human, UniProt P15692 181-395); assay: ELISA, human VEGF165 coated at 20 ng/well, antibody serially diluted from 1 ug/ml, peroxidase anti-human Ig, absorbance 450 nm
T2 construct: also called rhVEGF165; rhVEGF
Method: as §1

canine VEGFA (VEGF164) = target: T3, canine VEGFA (VEGF164) (canine, UniProt Q9MYV3-3 27-190); assay: ELISA, canine VEGFA coated at 20 ng/well, antibody serially diluted from 1 ug/ml, peroxidase anti-canine Ig, absorbance 450 nm
T3 construct: also called canine VEGF164
T3 sequence (looked up): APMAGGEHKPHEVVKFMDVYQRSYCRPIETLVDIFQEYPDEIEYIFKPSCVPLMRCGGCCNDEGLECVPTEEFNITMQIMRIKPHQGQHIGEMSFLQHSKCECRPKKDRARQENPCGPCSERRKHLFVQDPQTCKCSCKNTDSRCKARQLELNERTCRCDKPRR
Method: (§2) Next, after 3 times of washing with 300 μL of 0.02% Tween 20-containing PBS (−) (hereafter, denoted as “PBS-T”), 300 μL of 3% skim milk-containing PBS (−) was dispensed into each well, followed by blocking at 37° C. for 1 hour. […] After washing similarly, TMB Single Solution was added for color development at room temperature. After the reaction was stopped with 1 N sulfuric acid, absorbance at 450 nm was measured using a plate reader (Molecular Devices).

[2] = target: T2, Human recombinant VEGF165; assay: ELISA, human VEGF165 coated at 20 ng/well, antibody serially diluted from 1 ug/ml, peroxidase anti-canine Ig, absorbance 450 nm
Method: as §2

[3] = target: T2, Human recombinant VEGF165; assay: SPR, BIAcore-3000, rhVEGF immobilized on the chip, antibody injected
[4] = target: T2, Human recombinant VEGF165; assay: measured KD for rhVEGF set against a cited KD of Avastin; the excerpt does not show the method

EC50 (read off the curve) (human VEGF121): ~40 ng/mL | EC50 (read off the curve) [1]: ~40 ng/mL
B1: human IgG1 chimeric KLHb1501 antibody (antibody, V domains shown)
VH: DVQLQESGPGLVKPSQSLSLTCTVTGYSITSDYAWTWIRQFPGDKLEWMGYISYSGSTRYNPSLKSRISITRDTSKNQFFLHLNSVTTEDTATYFCARGGDYYGSRPWFAYWGQGTLVTVSA
VL: QAVVTQESALTTSPGETVTLTCRSSTGAVTISNYANWVQEKPDHLFTGLIGGTNNRAPDVPARFSGSLIGDKAALTITGAQTEDEAIYFCALWYSNHLVFGEGTKLTVL
notes: also called KLHb1501HC; KLHb1501HC antibody

EC50 (read off the curve) (canine VEGFA (VEGF164)): ~30 ng/mL | EC50 (read off the curve) [2]: ~30 ng/mL
B2: canine-IgGB chimeric KLHb1501 antibody (antibody, V domains shown)
VH: DVQLQESGPGLVKPSQSLSLTCTVTGYSITSDYAWTWIRQFPGDKLEWMGYISYSGSTRYNPSLKSRISITRDTSKNQFFLHLNSVTTEDTATYFCARGGDYYGSRPWFAYWGQGTLVTVSA
VL: QAVVTQESALTTSPGETVTLTCRSSTGAVTISNYANWVQEKPDHLFTGLIGGTNNRAPDVPARFSGSLIGDKAALTITGAQTEDEAIYFCALWYSNHLVFGEGTKLTVLQ
notes: also called KLHb1501CC; KLHb1501CC antibody

Kd [3]: 0.6 pM | ratio of dissociation constant to that of Avastin (bevacizumab) [4]: ≤ 0.001 ratio (KD of the antibody / KD of Avastin, cited as 4.9 nmol/L)
B3: KLHb1501 (antibody, V domains shown)
VH: DVQLQESGPGLVKPSQSLSLTCTVTGYSITSDYAWTWIRQFPGDKLEWMGYISYSGSTRYNPSLKSRISITRDTSKNQFFLHLNSVTTEDTATYFCARGGDYYGSRPWFAYWGQGTLVTVSA
VL: QAVVTQESALTTSPGETVTLTCRSSTGAVTISNYANWVQEKPDHLFTGLIGGTNNRAPDVPARFSGSLIGDKAALTITGAQTEDEAIYFCALWYSNHLVFGEGTKLTVL
notes: also called KLHb1501 antibody; KLH1501
